Assay [1] has as its target T1, human VEGF165 (human, UniProt P15692).
T1 chain: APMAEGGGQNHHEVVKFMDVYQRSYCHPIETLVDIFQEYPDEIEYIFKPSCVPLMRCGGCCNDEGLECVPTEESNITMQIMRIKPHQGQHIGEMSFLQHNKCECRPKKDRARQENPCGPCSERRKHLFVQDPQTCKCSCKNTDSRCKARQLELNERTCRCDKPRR
The assay can be described thus: SPR, pH 5. For orientation: SPR reads the build-up and loss of mass on a sensor chip optically.

The target in assay [2] is T1, human VEGF165. Briefly: SPR, pH 5.
In assay [3] the target is T1, human VEGF165. The assay can be described thus: SPR, pH 7.4.
The target of another assay is T2, mouse VEGF164 (mouse, UniProt Q00731).
T2 chain: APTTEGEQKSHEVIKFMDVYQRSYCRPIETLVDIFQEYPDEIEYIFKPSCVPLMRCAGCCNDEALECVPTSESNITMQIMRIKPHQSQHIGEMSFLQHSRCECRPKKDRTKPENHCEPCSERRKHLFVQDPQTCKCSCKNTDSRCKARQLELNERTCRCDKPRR
Briefly: SPR, pH 5.

In a further assay the target is T3, human VEGF121 (human, UniProt P15692).
T3 chain: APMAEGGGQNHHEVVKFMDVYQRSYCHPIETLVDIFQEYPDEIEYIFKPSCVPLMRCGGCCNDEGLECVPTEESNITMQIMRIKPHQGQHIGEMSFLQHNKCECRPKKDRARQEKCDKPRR
The assay can be described thus: SPR, pH 5.

The target in another assay is T4, rat VEGF164 (rat, UniProt P16612).
T4 chain: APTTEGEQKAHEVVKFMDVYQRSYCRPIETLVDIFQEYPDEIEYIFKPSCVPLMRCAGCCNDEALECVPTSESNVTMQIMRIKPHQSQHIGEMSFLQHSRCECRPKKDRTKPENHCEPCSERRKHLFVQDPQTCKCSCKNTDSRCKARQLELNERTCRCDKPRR
The assay can be described thus: SPR, pH 5.

In a further assay the target is T5, human VEGF110 (human, UniProt P15692).
T5 chain: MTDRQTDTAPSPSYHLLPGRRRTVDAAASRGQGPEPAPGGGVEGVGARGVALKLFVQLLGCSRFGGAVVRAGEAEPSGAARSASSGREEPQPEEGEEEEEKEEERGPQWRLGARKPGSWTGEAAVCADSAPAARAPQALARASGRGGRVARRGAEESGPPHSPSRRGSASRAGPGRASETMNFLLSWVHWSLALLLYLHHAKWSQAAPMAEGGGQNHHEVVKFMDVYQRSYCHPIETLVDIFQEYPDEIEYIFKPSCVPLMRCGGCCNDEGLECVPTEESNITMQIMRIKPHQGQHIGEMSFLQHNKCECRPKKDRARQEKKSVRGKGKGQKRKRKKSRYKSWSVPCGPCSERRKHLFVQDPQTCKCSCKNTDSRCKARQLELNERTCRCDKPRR
Briefly: SPR, pH 5.

The target of another assay is T6, human PlGF (human, UniProt P49763).
T6 chain: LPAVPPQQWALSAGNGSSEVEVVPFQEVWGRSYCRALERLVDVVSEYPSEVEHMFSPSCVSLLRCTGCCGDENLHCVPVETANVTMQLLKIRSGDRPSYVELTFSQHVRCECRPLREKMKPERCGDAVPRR
Briefly: SPR, pH 5.

B1: 578 wildtype C-His (798) (antibody, V domains shown)
VH: QSVEESGGRLVTPGTPLTLTCTASGFSLTDYYYMTWVRLAPGKGLEYIGFIDPDDDPYYATWAKGRFTISRTSTTVNLKMTSPTTEDTATYFCAGGDHNSGWGLDIWGPGTLVTVSL
VL: DVVMTQTPSSVSAAVGDTVTINCQASEIIHSWLAWYQQKPGQPPKLLIYLASTLASGVPSRFKGSGSGTQFTLTISDLECADAAIYYCQNVYLASTNGANFGGGTEVVVK
Usually Kd stands for the equilibrium constant for the complex coming apart. A high value points to weaker binding. On to B1, for which, in the assay with human VEGF165 [1], binding was characterised by a dissociation constant (Kd) of 0.2 nM.

B2: 534-min C-His (antibody, V domains shown)
VH: EVQLVESGGGLVQPGGSLRLSCAASGFSLSYYYMSWVRQAPGKGLEWVSIIGPGDYTDYASWAKGRFTISRDNSKNTLYLQMNSLRAEDTAVYYCAKGDDNSGWGEDIWGQGTLVTVSS
VL: EIVMTQSPSTLSASVGDRVIITCQASQSINIWLSWYQQKPGKAPKLLIYKESTLASGVPSRFSGSGSGAEFTLTISSLQPDDFATYYCQNNYDSGNNGFPFGQGTKLTVLG
Take B2: binding with human VEGF165 [2] was put at a Kd of 34.1 nM.

B3: 534-max (antibody, V domains shown)
VH: EVQLVESGGGLVQPGGSLRLSCTASGFSLSYYYMSWVRQAPGKGLEWVGIIGPGDYTDYASWAKGRFTISKDTSKNTVYLQMNSLRAEDTAVYYCARGDDNSGWGEDIWGQGTLVTVSS
VL: EIVMTQSPSTLSASVGDRVIITCQASQSINIWLSWYQQKPGKAPKLLIYKESTLASGVPSRFSGSGSGTEFTLTISSLQPDDFATYYCQNNYDSGNNGFPFGQGTKLTVLG
With B3, the equilibrium dissociation constant (Kd) was 9.21 nM with human VEGF165 [2] and 2.47 nM with human VEGF165 [3].

B4: 435-max (antibody, V domains shown)
VH: EVQLVESGGGLVQPGGSLRLSCKVSGFSLNTNYWMCWVRQAPGKGLEWVGCMYTGSYNRAYYASWAKGRFTSSKDTSKNTVYLQMNSLRAEDTAVYYCAKGSNWYSDLWGQGTLVTVSS
VL: EIVMTQSPSTLSASVGDRVIIKCQASQSIGSSLAWYQQKPGKAPKLLIYTAANLASGVPSRFSGSGSGAEFTLTISSLQPDDFATYYCQNFATSDTVTFGQGTKLTVLG
Consider B4, for which the values for the Kd with human VEGF165 [2] and in the assay with human VEGF165 [3] were 4.53 nM and 0.0922 nM, respectively.

B5: 375-max (antibody, V domains shown)
VH: EVQLVESGGGLVQPGGSLRLSCKASGFSFTTTDYMCWVRQAPGKGLEWVGCILAGDGSTYYANWAKGRFTGSKDTSKNTVYLQMNSLRAEDTAVYYCARSDPASSWSFALWGQGTLVTVSS
VL: EIVMTQSPSTLSASVGDRVIITCQASENINIWLSWYQQKPGKAPKLLIYQASKLASGVPSRFSGSGSGTQFTLTISSLQPDDFATYYCQNNYSYNRYGAPFGQGTKLTVLG
As for B5, the figures for the Kd with human VEGF165 [2] and in the assay with human VEGF165 [3] were 2.68 nM and 4.74 nM, respectively.

B6: 511max_min (905) (antibody, V domains shown)
VH: EVQLVESGGGLVQPGGSLRLSCAASGFSLNTYYMNWVRQAPGKGLEWVSIIAPDDTTYYASWAKSRFTISRDNSKNTLYLQMNSLRAEDTAVYYCAKSGDTTAWGADIWGQGTLVTVSS
VL: EIVMTQSPSTLSASVGDRVIITCQASQSINIWLSWYQQKPGKAPKLLIYRASTLASGVPSRFSGSGSGTEFTLTISSLQPDDFATYYCQANYAYSAGYGAAFGQGTKLTVLG
As for B6, the equilibrium dissociation constant (Kd) with human VEGF165 [1] was found to be 1.48 nM.

B7: 511min_max (904) (antibody, V domains shown)
VH: EVQLVESGGGLVQPGGSLRLSCTVSGFSLNTYYMNWVRQAPGKGLEWVGIIAPDDTTYYASWAKSRSTISRDTSKNTVYLQMNSLRAEDTAVYYCARSGDTTAWGADIWGQGTLVTVSS
VL: EIVMTQSPSTLSASVGDRVIITCQASQSINIWCSWYQQKPGKAPKLLIYRASTLASGVPSRFSGSGSGAEFTLTISSLQPDDFATYYCQANYAYSAGYGAAFGQGTKLTVLG
In the case of B7, the dissociation constant (Kd) with human VEGF165 [1] worked out at 0.278 nM.

B8: 509-min (antibody, V domains shown)
VH: EVQLVESGGGLVQPGGSLRLSCAASGFSLSSYYMCWVRQAPGKGLEWVSCLDYVGDTDYASWAKGRFTISRDNSKNTLYLQMNSLRAEDTAVYYCAKTDDSRGWGLNIWGQGTLVTVSS
VL: EIVMTQSPSTLSASVGDRVIITCQASQNIRIWLSWYQQKPGKAPKLLIYKASTLESGVPSRFSGSGSGAEFTLTISSLQPDDFATYYCQNNAHYSTNGGTFGQGTKLTVLG
Take B8: the Kd was found to be 1.63 nM with mouse VEGF164; 1.28 nM with human VEGF121; 2.41 nM with rat VEGF164; 1.65 nM with human VEGF110; 1.82 nM with human VEGF165 [2]; 3.06 nM with human VEGF165 [3]. Moreover, in the assay with human PlGF, the binding result is recorded as “no binding”.

B9: 567-max (antibody, V domains shown)
VH: EVQLVESGGGLVQPGGSLRLSCSVSGFSLSDYYMCWVRQAPGKGLEWVGCLDYFGSTDDASWAKGRFTISKDTSKNTVYLQMNSLRAEDTAVYYCARTDDSRGWGLNIWGQGTLVTVSS
VL: EIVMTQSPSTLSASVGDRVIITCQADQSIYIWLSWYQQKPGKAPKLLIYKASTLESGVPSRFSGSGSGTQFTLTISSLQPDDFATYYCQNNAHYSTNGGTFGQGTKLTVLG
In the case of B9, the Kd with mouse VEGF164 came to 0.0929 nM; with human VEGF121, 0.0511 nM; with rat VEGF164, 0.149 nM; in the assay with human VEGF110 it was 0.0327 nM; with human VEGF165 [2] it was 0.188 nM; with human VEGF165 [3], 0.143 nM. The binding result with human PlGF is “no binding”.

B10: 578-max FW1.4_DHP (960) (antibody, V domains shown)
VH: EVQLVESGGGSVQPGGSLRLSCTASGFSLTDYYYMTWVRQAPGKGLEWVGFIDPDDDPYYATWAKGRFTISRDTSKNTVYLQMNSLRAEDTATYYCAGGDHNSGWGLDIWGQGTTVTVSS
VL: EIVMTQSPSTLSASVGDRVIITCQASEIIHSWLAWYQQKPGKAPKLLIYLASTLASGVPSRFSGSGSGTQFTLTISSLQPDDFATYYCQNVYLASTNGANFGQGTKLTVLG
For the molecule B10, the Kd with human VEGF165 [1] was determined as 0.266 nM.

B11: 578min_max T84N_V89A (1009) (antibody, V domains shown)
VH: EVQLVESGGGLVQPGGSLRLSCTASGFSLTDYYYMTWVRQAPGKGLEWVGFIDPDDDPYYATWAKGRFTISRDNSKNTAYLQMNSLRAEDTAVYYCAGGDHNSGWGLDIWGQGTLVTVSS
VL: EIVMTQSPSTLSASVGDRVIITCQASEIIHSWLAWYQQKPGKAPKLLIYLASTLASGVPSRFSGSGSGAEFTLTISSLQPDDFATYYCQNVYLASTNGANFGQGTKLTVLG
Molecule B11 returned a Kd with human VEGF165 [1] of 0.615 nM.

B12: 578min_max T84N (991) (antibody, V domains shown)
VH: EVQLVESGGGLVQPGGSLRLSCTASGFSLTDYYYMTWVRQAPGKGLEWVGFIDPDDDPYYATWAKGRFTISRDNSKNTVYLQMNSLRAEDTAVYYCAGGDHNSGWGLDIWGQGTLVTVSS
VL: EIVMTQSPSTLSASVGDRVIITCQASEIIHSWLAWYQQKPGKAPKLLIYLASTLASGVPSRFSGSGSGAEFTLTISSLQPDDFATYYCQNVYLASTNGANFGQGTKLTVLG
With B12, binding with human VEGF165 [1] was put at a Kd of 0.971 nM.

B13: 578-max-min (902) (antibody, V domains shown)
VH: EVQLVESGGGLVQPGGSLRLSCAASGFSLTDYYYMTWVRQAPGKGLEWVSFIDPDDDPYYATWAKGRFTISRDNSKNTLYLQMNSLRAEDTAVYYCAKGDHNSGWGLDIWGQGTLVTVSS
VL: EIVMTQSPSTLSASVGDRVIITCQASEIIHSWLAWYQQKPGKAPKLLIYLASTLASGVPSRFSGSGSGTQFTLTISSLQPDDFATYYCQNVYLASTNGANFGQGTKLTVLG
Consider B13, for which the Kd with human VEGF165 [1] came to 6.55 nM.

B14: 578min_max V89L (980) (antibody, V domains shown)
VH: EVQLVESGGGLVQPGGSLRLSCTASGFSLTDYYYMTWVRQAPGKGLEWVGFIDPDDDPYYATWAKGRFTISRDTSKNTLYLQMNSLRAEDTAVYYCAGGDHNSGWGLDIWGQGTLVTVSS
VL: EIVMTQSPSTLSASVGDRVIITCQASEIIHSWLAWYQQKPGKAPKLLIYLASTLASGVPSRFSGSGSGAEFTLTISSLQPDDFATYYCQNVYLASTNGANFGQGTKLTVLG
As for B14, in the assay with human VEGF165 [1], the dissociation constant (Kd) was 2.13 nM.

B15: 578min_max V89A (978) (antibody, V domains shown)
VH: EVQLVESGGGLVQPGGSLRLSCTASGFSLTDYYYMTWVRQAPGKGLEWVGFIDPDDDPYYATWAKGRFTISRDTSKNTAYLQMNSLRAEDTAVYYCAGGDHNSGWGLDIWGQGTLVTVSS
VL: EIVMTQSPSTLSASVGDRVIITCQASEIIHSWLAWYQQKPGKAPKLLIYLASTLASGVPSRFSGSGSGAEFTLTISSLQPDDFATYYCQNVYLASTNGANFGQGTKLTVLG
In turn, B15 came in with a Kd with human VEGF165 [1] of 1.2 nM.
